Results from US20170081400A1 (CEPHALON, published 2017).
Numbering of substitutions follows the chain as printed.

T1: human TL1A extracellular domain with N-terminal HIS and FLAG tag (human) (UniProt O95150)
T1 sequence: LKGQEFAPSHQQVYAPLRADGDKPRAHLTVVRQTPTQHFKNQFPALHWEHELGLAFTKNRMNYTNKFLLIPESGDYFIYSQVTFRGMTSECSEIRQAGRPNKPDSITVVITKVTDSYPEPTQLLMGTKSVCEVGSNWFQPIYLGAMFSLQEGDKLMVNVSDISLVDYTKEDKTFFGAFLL

T2: human TL1A extracellular domain with N-terminal HIS and FLAG tag (human, UniProt O95150 72-251)
T2 sequence: T1 sequence

T3: human TL1A extracellular domain with N-terminal HIS and FLAG tag (human, UniProt O95150 72-251)
T3 construct: whole entry named. ~70 kDa fraction purified by gel filtration
T3 sequence: T1 sequence

T4: human TL1A extracellular domain with N-terminal HIS and FLAG tag (human, UniProt O95150 72-251)
T4 construct: the whole entry is named
T4 sequence: T1 sequence

B1: 320-443 (antibody, human IgG1, name in Kabat numbering, V domains shown)
VH: QVQLVQSGAEVKKPGASVKVSCKASGYTFTSKDINWVRQAPGQGLEWMGWLNPNSGNTGYAQKFQGRVTMTADRSTSTAYMELSSLRSEDTAVYYCAREVPETAAFEYWGQGTLVTVSS
VL: QSVLTQPPSVSGAPGQRVTISCTSSSSDIGAGLGVHWYQQLPGTAPKLLIEGYYNRPSGVPDRFSGSKSGTSASLTITGLLPEDEGDYYCQSYDGTLSALFGGGTKLTVLG
notes: human IgG1, lambda
B2: 320-445 (antibody, human IgG1, name in Kabat numbering, V domains shown)
VH: B1 VH with K32W
VL: B1 VL
notes: human IgG1, lambda
B3: 320-464 (antibody, human IgG1, name in Kabat numbering, V domains shown)
VH: B1 VH with K32Y, N35S
VL: B1 VL
notes: human IgG1, lambda
B4: 320-463 (antibody, human IgG1, name in Kabat numbering, V domains shown)
VH: B1 VH with K32Y, N35A
VL: B1 VL
notes: human IgG1, lambda
B5: 320-477 (antibody, human IgG1, name in Kabat numbering, V domains shown)
VH: B1 VH with S31H, K32Y
VL: B1 VL
notes: human IgG1, lambda
B6: 320-278 (antibody, human IgG1, V domains shown)
VH: B1 VH with K32Y
VL: B1 VL with L33Q
B7: 320-267 (antibody, human IgG1, V domains shown)
VH: B1 VH with K32Y
VL: B1 VL with G32A
B8: 320-277 (antibody, human IgG1, V domains shown)
VH: B1 VH with K32Y
VL: B1 VL with L33S
B9: 320-547 (antibody, human IgG1, name in Kabat numbering, V domains shown)
VH: B1 VH with K32Y, N57Y
VL: B1 VL
notes: full-length human IgG1, lambda
B10: 320-262 (antibody, human IgG1, name in Kabat numbering, V domains shown)
VH: B1 VH with K32Y
VL: B1 VL with A31H
notes: human IgG1, lambda
B11: 320-264 (antibody, human IgG1, name in Kabat numbering, V domains shown)
VH: B1 VH with K32Y
VL: B1 VL with A31L
notes: human IgG1, lambda
B12: 320-266 (antibody, human IgG1, name in Kabat numbering, V domains shown)
VH: B1 VH with K32Y
VL: B1 VL with A31Y
notes: human IgG1, lambda
B13: 320-261 (antibody, human IgG1, name in Kabat numbering, V domains shown)
VH: B1 VH with K32Y
VL: B1 VL with A31D
notes: human IgG1, lambda
B14: 320-265 (antibody, human IgG1, name in Kabat numbering, V domains shown)
VH: B1 VH with K32Y
VL: B1 VL with A31W
notes: human IgG1, lambda
B15: 320-259 (antibody, human IgG1, name in Kabat numbering, V domains shown)
VH: B1 VH with K32Y
VL: B1 VL with A31S
notes: human IgG1, lambda
B16: 320-256 (antibody, human IgG1, name in Kabat numbering, V domains shown)
VH: B1 VH with K32Y
VL: B1 VL with G30L
notes: human IgG1, lambda
B17: 320-260 (antibody, human IgG1, name in Kabat numbering, V domains shown)
VH: B1 VH with K32Y
VL: B1 VL with A31Q
notes: human IgG1, lambda
B18: 320-257 (antibody, human IgG1, name in Kabat numbering, V domains shown)
VH: B1 VH with K32Y
VL: B1 VL with G30W
notes: human IgG1, lambda
B19: 320-268 (antibody, human IgG1, name in Kabat numbering, V domains shown)
VH: B1 VH with K32Y
VL: B1 VL with G32S
notes: human IgG1, lambda
B20: 320-491 (antibody, human IgG1, name in Kabat numbering, V domains shown)
VH: B1 VH with K32Y, L51S
VL: B1 VL
notes: human IgG1, lambda
B21: 320-473 (antibody, human IgG1, name in Kabat numbering, V domains shown)
VH: B1 VH with K32Y
VL: B1 VL with Y93D
notes: human IgG1, lambda
B22: 320-490 (antibody, human IgG1, name in Kabat numbering, V domains shown)
VH: B1 VH with K32Y, W50Y
VL: B1 VL
notes: human IgG1, lambda
B23: 320-479 (antibody, human IgG1, name in Kabat numbering, V domains shown)
VH: B1 VH with K32Y, A61W
VL: B1 VL
notes: human IgG1, lambda
B24: 320-478 (antibody, human IgG1, name in Kabat numbering, V domains shown)
VH: B1 VH with K32Y, A61L
VL: B1 VL
notes: human IgG1, lambda
B25: 320-480 (antibody, human IgG1, name in Kabat numbering, V domains shown)
VH: B1 VH with K32Y, A61Y
VL: B1 VL
notes: human IgG1, lambda
B26: 320-476 (antibody, human IgG1, name in Kabat numbering, V domains shown)
VH: B1 VH with Y27K, K32Y
VL: B1 VL
notes: human IgG1, lambda

Each binder was assayed against T1, human TL1A extracellular domain with N-terminal HIS and FLAG tag (human) (assay: cell-based or functional assay).

| Antibody IC50, TL1A induced caspase potency assay in TF-1 cells [µg/mL] | Fold improvement over 320-179, TL1A induced caspase potency assay in TF-1 cells [fold] | Binder |
| --- | --- | --- |
| 0.06 | 1 | B1 |
| 0.03 | 2 | B2 |
| 0.03 | 2 | B3 |
| 0.02 | 3 | B4 |
| 0.03 | 1 | B5 |

What follows are binders tested against T2, human TL1A extracellular domain with … (assay: cell-based or functional assay).

| Antibody IC50, TL1A induced caspase potency assay in TF-1 cells [µg/mL] | Fold improvement over 320-179, TL1A induced caspase potency assay in TF-1 cells [fold] | Binder |
| --- | --- | --- |
| 0.01 | 2 | B6 |
| 0.01 | 4 | B7 |
| 0.003 | 3 | B8 |
| 0.004 | 10 | B9 |

Each binder was assayed against T2, human TL1A extracellular domain with … (assay: SPR Run 7, antibody on Protein A, TL1A 5 ug/mL, timepoint 44).
Method in brief: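 Biacore T200 SPR with antibody (supernatant or Protein A-purified) captured on Protein A amine-coupled to a CM5 chip; capture level recorded as response change at end of capture.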

| TL1A Binding Level (Early) [RU] | Binder |
| --- | --- |
| 77 | B9 |

What follows are binders tested against T2, human TL1A extracellular domain with … (assay: SPR Run 7, antibody on Protein A, TL1A 5 ug/mL, timepoint 220).
Method in brief: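 The capture level was the response change at the end of loading, which varied by run. Antigen response was read before dissociation ended, double-referenced against a reference flow cell and a buffer blank.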

| TL1A Binding Level (Late) [RU] | Binder |
| --- | --- |
| 75 | B9 |

What follows are binders tested against T3, human TL1A extracellular domain with … (assay: SPR run 3; supernatant on Protein A; TL1A 10 ug/mL; timepoint 59).
Source text: (§1) 1.5. Antibody expression and antigen binding as determined by SPR. Using a CM5 sensor chip (GE Healthcare) Protein A (Pierce) was coupled to the chip surface using an amine coupling kit (GE Healthcare). Protein A was coupled on flow cell 1 and 2 (or alternatively 3 and 4) using a BIACORE® T200. […] The amount of supernatant or purified protein (as well as the concentration) injected during the capture stage varied between runs and is specified in the header of the Tables 3-11. At the end of injection of the supernatant or purified antibody the change in response units was measured. This value was reported as Capture Level in Tables 3-11. […] The response units were measured prior to the end of the dissociation phase. […] The sensorgrams were double referenced (flow cell 2 is subtracted from flow cell 1 and a buffer blank). As there were a large number of antibody variants to screen, these were screened across different runs (Tables 3-11). […] A summary of the conditions used in each run is below:
(§2) 2.1. […] In some experiment the antibodies were purified using Protein A chromatography (See 1.4) and purified antibodies were used in BIACORE® (GE Healthcare) experiments.

| TL1A Binding Level (Early) [RU] | Binder |
| --- | --- |
| 209 | B10 |
| 199 | B11 |
| 218 | B12 |
| 86 | B13 |
| 168 | B14 |
| 194 | B15 |
| 30 | B16 |
| 182 | B17 |
| 83 | B18 |
| 28 | B19 |

What follows are binders tested against T3, human TL1A extracellular domain with … (assay: SPR run 3; supernatant on Protein A; TL1A 10 ug/mL; timepoint 590).
Source text: as §1, §2

| TL1A Binding Level (Late) [RU] | Binder |
| --- | --- |
| 190 | B10 |
| 184 | B11 |
| 192 | B12 |
| 29 | B13 |
| 69 | B14 |
| 179 | B15 |
| 10 | B16 |
| 165 | B17 |
| 18 | B18 |
| 7 | B19 |

What follows are binders tested against T4, human TL1A extracellular domain with … (assay: SPR Run 6, purified Ab captured on Protein A, TL1A 5 ug/mL, timepoint 44).
Source text: as §1, §2

| TL1A Binding Level (Early) [RU] | Binder |
| --- | --- |
| 114 | B1 |
| 116 | B2 |
| 130 | B3 |
| 85 | B20 |
| 102 | B4 |
| 69 | B21 |
| 14 | B22 |
| 148 | B5 |
| 61 | B23 |
| 85 | B24 |
| 79 | B25 |
| 128 | B26 |

The binders below were run against T4, human TL1A extracellular domain with … (assay: SPR Run 6, purified Ab captured on Protein A, TL1A 5 ug/mL, timepoint 170).
Source text: as §1, §2

| TL1A Binding Level (Late) [RU] | Binder |
| --- | --- |
| 103 | B1 |
| 106 | B2 |
| 124 | B3 |
| 76 | B20 |
| 101 | B4 |
| 55 | B21 |
| 8 | B22 |
| 136 | B5 |
| 54 | B23 |
| 77 | B24 |
| 73 | B25 |
| 118 | B26 |
